{"source": "patent US9688764B2", "about": "“Methods of treating breast cancer by administering anti-human prolactin receptor (PRLR) antibodies” (REGENERON PHARMACEUTICALS, INC., priority 2013, dated 2017)", "key": {"HEK293 (293) cells": {"test_system": "HEK293 (293) cells", "assay": "Cell viability (cell kill) assay", "assay_type": "cell-based", "outline": "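Anti-PRLR–DM1 ADCs (non-cleavable SMCC linker) or free DM1-SMe, 500 nM to 5 pM for 3 days on parental or hPRLR-overexpressing lines. HEK293: CCK8 OD450; MCF7: Hoechst nuclear counts by imaging.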"}, "[1]": {"test_system": "HEK293/hPRLR (293/hPRLR) cells", "assay": "Cell viability (cell kill) assay", "assay_type": "cell-based, human", "details": "3 days", "excerpt": "PRLR-overexpressing cells, including HEK293, PC3, MCF7 and NCI-N87, were generated to assess the ability of anti-PRLR conjugated antibodies to reduce cell viability. For comparative purposes, PC3 and T47D cells with overexpressed ErbB2 were also generated, as well as an MCF7 cell line over-expressing both hPRLR and hErbB2. Briefly, Lipofectamine® 2000-mediated transfection methodology was utilized to generate HEK293 cells expressing human PRLR (HEK293/hPRLR) or human ErbB2 (HEK293/hErbB2). Lipofectamine LTX with Plus Reagent was used to generate PC3 cells expressing human PRLR (PC3/hPRLR) or human ErbB2 (PC3/hErbB2). Lentiviral-mediated transduction was utilized to generate MCF7 cells expressing human PRLR (MCF7/hPRLR), NCI-N87 cells expressing human PRLR (NCI-N87/hPRLR), T47D cells over-expressing human ErbB2 (T47D/hErbB2), and MCF7 cells expressing both human PRLR and human ErbB2 (MCF7/hPRLR/hErbB2). All lines were selected for at least two weeks in complete growth media plus appropriate selection reagents. Stably expressing populations were enriched for PRLR expression via FACS using the anti PRLR antibody Control I.\nNext, the ability of anti-PRLR-DM1 antibody-drug conjugates (i.e., anti-PRLR antibodies conjugated to DM1 via a non-cleavable linker [SMCC]) to reduce cell viability was determined using in vitro cell based assays. Cells were seeded in PDL-coated 96 well plates at 1500 to 10000 cells per well in complete growth media and allowed to grow overnight. For cell viability curves, ADCs or free DM1 (as the methyl disulfide derivative DM1-SMe) were added to the cells at final concentrations ranging from 500 nM to 5 pM and incubated for 3 days. The 293, PC3 and T47D cells were incubated with CCK8 (Dojindo, Rockville, Md.) for the final 1-3 hours and the absorbance at 450 nm (OD450) was determined on a Flexstation3 (Molecular Devices, Sunnyvale, Calif.). MCF7 cells were treated with Hoechst 33342 nuclear stain while being fixed with 4% formaldehyde. Images were acquired on the ImageXpress micro XL (Molecular Devices, Sunnyvale, Calif.) and nuclear counts were determined via Columbus image analysis software (Perkin Elmer, Shelton, Conn.). Background OD450 values (PC3, 293, and T47D) or nuclear counts (MCF7) from digitonin (40 nM) treated cells was subtracted from all wells and viability was expressed as a percentage of the untreated controls. IC50 values were determined from a four-parameter logistic equation over a 10-point response curve (GraphPad Prism)."}, "MCF7/PRLR tumors": {"test_system": "MCF7/PRLR tumors", "assay": "Tumor growth inhibition in xenograft-bearing mice", "assay_type": "in vivo, NCr nude mice", "details": "for effect on MCF7/PRLR tumor growth: multi-dose trial 1, 5 and 15 mg/kg", "excerpt": "Briefly, 20×10^6 MCF7/PRLR cells (ATCC HTB-22 transfected with full length hPRLR as previously described) were implanted subcutaneously into the left mammary fat pad of female NCr nude mice. In other studies, 10×10^6 PC3/PRLR (ATCC CRL-1435 transfected with full length hPRLR as previously described) were implanted subcutaneously into the left flank of male SCID mice. Additionally, 10×10^6 parental T47D (ATCC HTB-133) or […] T47D#11 cells (ATCC HTB-133 serially passaged in vivo as described below) were subcutaneously implanted into the left flank of female CB17 SCID mice. All mice were obtained from Taconic (Hudson, N.Y.). Each bolus of cells was supplemented with a 90-day estrogen release pellet (1.7 mg/pellet; Innovative Research America, Sarasota Fla.). Once tumors had reached an average volume of 250 mm^3, mice were randomized into groups of seven and dosed with anti-PRLR antibody-drug conjugates of the invention or control reagents. Control reagents included PBS vehicle, free methyl-disulfide DM1 (DM1-SMe) and isotype Control 1-DM1.\nIn multi-dose studies, mice were dosed once a week for a total of three weeks with tumor volumes and body weights being monitored twice weekly throughout the study. Test ADCs were dosed at 5 and/or 15 mg/kg in the multi-dose studies. In single-dose studies, mice received a single dose of test ADC, and tumor volumes and body weights were monitored twice weekly throughout the study. Test ADCs were dosed at 1, 2.5, 5, and 15 mg/kg in the single-dose studies. Average tumor size as well as tumor growth inhibition relative to the vehicle treated group were calculated for each group. Tumors were measured with calipers twice a week until the average size of the vehicle group reached 1000 mm^3. Tumor size was calculated using the formula (length×width^2)/2. Tumor growth inhibition was calculated according to the following formula: (1−((Tfinal−Tinitial)/(Cfinal−Cinitial)))*100, where T (treated group) and C (control group) represent the mean tumor mass on the day the vehicle group reached 1000 mm^3. […] Results are summarized in Tables 21-25 (multi-dose) and Table 26 (single dose). (NT=not tested in the particular experiment shown)."}, "PC3/hPRLR cells": {"test_system": "PC3/hPRLR cells", "assay": "Cell viability (cell kill) assay", "assay_type": "cell-based, human", "outline": "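PC3 and PC3/hPRLR (lipofection-generated, FACS-enriched for PRLR) cells exposed 3 days to anti-PRLR ADCs or free DM1-SMe, 500 nM to 5 pM. Viability by CCK8 OD450, digitonin background subtracted, as % of untreated; IC50 from four-parameter fit of 10-point curves.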"}, "[2]": {"assay": "Conjugate characterization: protein and linker/payload concentrations, payload loading (UV, MALDI-TOF, SEC-HPLC, RP-HPLC)", "assay_type": "physicochemical", "details": "Anti-PRLR-SMCC-DM1 conjugates; Table 9", "outline": "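Anti-PRLR antibodies were conjugated to DM1 via an SMCC linker, then purified by size exclusion and sterile filtered. Protein and linker/payload concentrations came from UV and MALDI-TOF, and monomer content and free linker-payload from SEC-HPLC and RP-HPLC. Payload loading was determined by UV and by native-versus-conjugated mass difference, with yields based on protein.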"}, "[3]": {"details": "293/PRLR, Table 11, read-out: IC50"}}, "note": "Like-named read-outs stand apart in the source and are kept apart here."}
{"molecule": "H1H6953N-DM1 (conjugate) VH: EVQLLESGGGLVQPGGTLRLSCAASGFTFSAYAMSWVRQAPGKGLEWVSSINVRAGDTYYADSVKGRFTISRDNSKNTLFLLMNSLRAEDTAAYYCAKARYSSNWGFDFWGQGTLVTVSS VL: DIVMTQSPDSLTVSLGARTTINCQSSQTILHSSNNHNYLAWYQQKPGLPPKLLIYWSSTRESGVPDRFSGSGSGTDFTLTISSLQAEDVAIYYCQQYSNTPYTFGQGTKLEIN", "values": [{"measurement": "IC50", "setting": "HEK293 (293) cells; 293, Table 11, 3 days", "result": 100, "unit": "nM"}, {"measurement": "IC50", "setting": "HEK293 (293) cells; 293, Table 14", "result": 100, "unit": "nM"}, {"measurement": "% Kill", "setting": "[1]; 293/PRLR, Table 11", "result": 95, "unit": "%"}, {"measurement": "IC50", "setting": "[1]; [3]", "result": 0.28, "unit": "nM"}, {"measurement": "IC50", "setting": "[1]; 293/hPRLR cells (PRLR 18× above background), read-out: IC50, cell viability", "result": 0.43, "unit": "nM"}, {"measurement": "effect on MCF7/PRLR tumor growth", "setting": "MCF7/PRLR tumors", "result": "potently inhibited MCF7/PRLR tumor growth"}, {"measurement": "% Kill", "setting": "PC3/hPRLR cells; PC3/PRLR, Table 11, 3 days", "result": 67, "unit": "%"}, {"measurement": "IC50", "setting": "PC3/hPRLR cells; PC3/PRLR, Table 11, 3 days", "result": 0.86, "unit": "nM"}, {"measurement": "% Kill", "setting": "PC3/hPRLR cells; PC3/PRLR, Table 15", "result": 76, "unit": "%"}, {"measurement": "IC50", "setting": "PC3/hPRLR cells; PC3/PRLR, Table 15", "result": 0.68, "unit": "nM"}, {"measurement": "Payload:Antibody Molar Ratio (MS)", "setting": "[2]", "result": 2.7}, {"measurement": "Payload:Antibody Molar Ratio (UV)", "setting": "[2]", "result": 3.2}]}
{"molecule": "H1H6953N: human IgG1 Fc form of H1M6953N; anti-PRLR; HCVR/LCVR SEQ ID NOs 274/282 (antibody, V domains shown, human IgG1 Fc) VH: EVQLLESGGGLVQPGGTLRLSCAASGFTFSAYAMSWVRQAPGKGLEWVSSINVRAGDTYYADSVKGRFTISRDNSKNTLFLLMNSLRAEDTAAYYCAKARYSSNWGFDFWGQGTLVTVSS VL: DIVMTQSPDSLTVSLGARTTINCQSSQTILHSSNNHNYLAWYQQKPGLPPKLLIYWSSTRESGVPDRFSGSGSGTDFTLTISSLQAEDVAIYYCQQYSNTPYTFGQGTKLEIN", "values": [{"measurement": "Average Tumor Growth Inhibition (%)", "setting": "MCF7/PRLR tumors; MCF7/PRLR tumors TRIAL #1, multi-dose 15 mg/kg, NCr Nude mice, Day 52", "result": 79, "unit": "%"}]}
{"molecule": "H1H6958N2-DM1: anti-PRLR antibody H1H6958N2 conjugated to DM1 through an SMCC linker (conjugate) VH: QVQLVESGGGVVQPGRSLRLSCGASGFTFRNYGMQWVRQGPGKGLEWVTLISFDGNDKYYADSVKGRFTISRDNSKNTLFLQMNSLRTEDTAVYYCARGGDFDYWGQGTLVTVSS VL: DIQMTQSPSSLSASVGDRVTITCRASQDIRKDLGWYQQKPGKAPKRLIYAASSLHSGVPSRFSGSGSGTEFTLTISSLQPEDFATYYCLQHNSYPMYTFGQGTKLEIK", "values": [{"measurement": "% Kill", "setting": "HEK293 (293) cells; 293, Table 19", "result": 90, "unit": "%"}, {"measurement": "IC50", "setting": "HEK293 (293) cells; 293, Table 19", "result": 100, "unit": "nM"}, {"measurement": "% Kill", "setting": "HEK293 (293) cells; HEK293, Table 13, without PRL", "result": 88, "unit": "%"}, {"measurement": "IC50", "setting": "HEK293 (293) cells; HEK293, Table 13, without PRL", "result": 90, "unit": "nM"}, {"measurement": "% Kill", "setting": "[1]; 293/PRLR, Table 11", "result": 95, "unit": "%"}, {"measurement": "IC50", "setting": "[1]; [3]", "result": 0.1, "unit": "nM"}, {"measurement": "effect on MCF7/PRLR tumor growth", "setting": "MCF7/PRLR tumors", "result": "potently inhibited MCF7/PRLR tumor growth"}, {"measurement": "effect on tumor volume relative to vehicle control tumors", "setting": "MCF7/PRLR tumors; single dose, 1 mg/kg", "result": "significant decrease in tumor volume"}, {"measurement": "tumor growth inhibition", "setting": "MCF7/PRLR tumors; single dose, all doses above 1 mg/kg tested (2.5, 5, 15 mg/kg)", "result": "> 100", "unit": "%"}, {"measurement": "% Kill", "setting": "PC3/hPRLR cells; PC3/PRLR, Table 11, 3 days", "result": 83, "unit": "%"}, {"measurement": "IC50", "setting": "PC3/hPRLR cells; PC3/PRLR, Table 11, 3 days", "result": 0.43, "unit": "nM"}, {"measurement": "% Kill", "setting": "PC3/hPRLR cells; PC3/hPRLR, Table 18", "result": 79, "unit": "%"}, {"measurement": "IC50", "setting": "PC3/hPRLR cells; PC3/hPRLR, Table 18", "result": 0.5, "unit": "nM"}, {"measurement": "Payload:Antibody Molar Ratio (MS)", "setting": "[2]", "result": 3.4}, {"measurement": "Payload:Antibody Molar Ratio (UV)", "setting": "[2]", "result": 4.0}]}
{"molecule": "H1H6958N2: human IgG1 Fc form of H2M6958N2; anti-PRLR, receptor blocking; HCVR/LCVR SEQ ID NOs 290/298 (antibody, V domains shown, human IgG1 Fc) VH: QVQLVESGGGVVQPGRSLRLSCGASGFTFRNYGMQWVRQGPGKGLEWVTLISFDGNDKYYADSVKGRFTISRDNSKNTLFLQMNSLRTEDTAVYYCARGGDFDYWGQGTLVTVSS VL: DIQMTQSPSSLSASVGDRVTITCRASQDIRKDLGWYQQKPGKAPKRLIYAASSLHSGVPSRFSGSGSGTEFTLTISSLQPEDFATYYCLQHNSYPMYTFGQGTKLEIK", "values": [{"measurement": "Average Tumor Growth Inhibition (%)", "setting": "MCF7/PRLR tumors; MCF7/PRLR tumors, single dose 15 mg/kg, Day 55", "result": 1, "unit": "%"}]}
